Experiment [1] addresses T1, human CD16A (158F) on transfected CHO cells (cAg_34) (human, UniProt P08637 17-254).
T1 construct: Exact cell-anchored construct not described; also called huCD16A
Briefly: flow cytometry on huCD16A-transfected CHO cells, anti-human IgG-APC detection. Here is the method: To analyze binding of different antibody constructs to CHO cells transfected with human CD16A (cAg_34), relative to CD16 expression by flow cytometry, 1-2×10⁵ were resuspended in 100 μL FACS buffer (PBS (Invitrogen, cat.: 14190-169) containing 2% heat-inactivated FCS (Invitrogen, cat.: 10270-106), and 0.1% sodium azide (Roth, Karlsruhe, Germany, cat.: A1430.0100)) in round-bottom 96-well microtiter plates. After washing in FACS buffer, cells were incubated in 50 μL FACS buffer without antibodies or with titrated antibodies starting at a concentration of 100 μg/mL followed by ten 5-fold serial dilutions for 30 min on ice in the dark. After washing twice, cells were incubated with APC-conjugated goat anti-human IgG (H+L)-APC (Dianova, cat. 109-136-088) for 30 min on ice in the dark. […] After washing, binding was measured by flow cytometry and mean fluorescence intensities (MFI) of cell samples were calculated and corrected for background staining using control cells stained with secondary antibodies only.
(§1) Equilibrium dissociation constants (KD) of antibody binding were calculated by plotting MFI values and fitting a non-linear regression model for one-site binding to hyperbolic dose-response curves using GraphPad Prism.
(Flow cytometry measures light scatter and fluorescence of single cells or particles in a stream.)

Experiment [2] addresses T2, recombinant murine FcγRIIB (CD32), biotinylated (murine, UniProt P08101 30-207, limits assumed, site-directed biotinylation at AviTag).
T2 construct: also called murine CD32B; mouse CD32B
T2 sequence (looked up): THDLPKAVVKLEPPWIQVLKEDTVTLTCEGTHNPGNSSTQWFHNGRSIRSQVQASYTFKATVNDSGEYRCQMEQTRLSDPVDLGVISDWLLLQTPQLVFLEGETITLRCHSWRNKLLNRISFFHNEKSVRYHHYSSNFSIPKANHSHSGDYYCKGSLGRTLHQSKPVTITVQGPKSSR
Briefly: SPR (Biacore T200), 37 C, biotin-captured receptor. The procedure: Sensor chips were pre-equilibrated in HBS-P+ running buffer for 12 hours prior to the first measurement and the detectors were normalized using BIAnormalization solution (70% w/w glycerol) according to the manufacturer's instructions.
Interaction analysis of FcRn binding was performed at pH 6.0 in PBS/0.05% Tween 20; analytes and ligands were diluted in the same buffer. […] Ligand-free surfaces in FC1 and FC3 were used as references for response signals (FC2-1, FC4-3). Interaction analysis of CD64, CD32, and murine CD16-2 binding was performed in HBS-P+ buffer and analytes and ligands were diluted in the same buffer. Biotinylated Fcγ-Receptors were captured to a density of approximately 15 to 30 RU (FC2, FC3, and FC4) before increasing concentrations (500 nM to 4000 nM) of antibody were injected, using the single-cycle kinetic mode (FC1-FC4) at a flow rate of 40 μL/min for 100 seconds followed by dissociation for 90 seconds. A zero-concentration cycle and ligand-free surface in FC1 was used for referencing of response signals (FC2-1, FC3-1, and FC4-1). Sensor chip surfaces were prepared and regenerated before and after each measurement using Biotin Capture reagent (Biotin CAPture Kit, GE Healthcare) and 6 M guanidine-HCl, 0.25 M NaOH, respectively.
Binding affinities were determined by fitting data using the steady state affinity model of the Biacore T200 Evaluation software (v3.1).

Experiment [3] has as its target T3, recombinant human FcγRIIB (CD32B), biotinylated (human, UniProt P31994 43-217, limits assumed, site-directed biotinylation at AviTag).
T3 construct: also called human CD32B
T3 sequence (looked up): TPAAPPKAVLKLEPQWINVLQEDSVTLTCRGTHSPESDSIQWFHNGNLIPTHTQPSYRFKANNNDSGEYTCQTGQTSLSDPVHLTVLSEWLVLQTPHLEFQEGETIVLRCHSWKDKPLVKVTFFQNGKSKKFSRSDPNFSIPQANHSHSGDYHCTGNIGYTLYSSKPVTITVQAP
Briefly: SPR (Biacore), 37 °C, biotin-captured human CD32B as ligand, steady-state plot; left-hand column, no heading on the sheet. The procedure:
FIG. 21: SPR interaction analysis of antibody binding to CD32. […] Affinity parameters were evaluated for interaction with receptors using a Steady State Binding model.
For orientation: SPR reads the build-up and loss of mass on a sensor chip optically.

For experiment [4], the target named is T4, recombinant murine FcγRIV (CD16-2), biotinylated (murine, UniProt A0A0B4J1G0 21-203, biotinylated (site not stated)).
T4 construct: also called murine CD16-2; mouse CD16-2; not shown: biotinylation or purification tag (AviTag according to our card)
T4 sequence: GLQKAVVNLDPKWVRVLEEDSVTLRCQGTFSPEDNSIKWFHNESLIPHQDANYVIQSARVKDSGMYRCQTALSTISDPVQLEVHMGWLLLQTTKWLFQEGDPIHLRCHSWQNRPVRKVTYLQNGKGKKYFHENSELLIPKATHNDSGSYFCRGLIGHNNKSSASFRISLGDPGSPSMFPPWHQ
Briefly: SPR (Biacore), 37 °C, biotin-captured murine CD16-2 as ligand, steady-state plot; left-hand column, no heading on the sheet. Here is the method:
FIG. 20: SPR interaction analysis of antibody binding to CD64 and murine CD16-2. […] Affinity parameters were evaluated for interaction with receptors using a Steady State Binding model.

In experiment [5] the target is T1, human CD16A (158F) on transfected CHO …. Briefly: flow cytometry on huCD16A-transfected CHO cells (cAg_34), one-site fit of MFI, experiment 3. The procedure:
(§2) After washing in FACS buffer, cells were incubated in 50 μL FACS buffer without antibodies or with titrated antibodies starting at a concentration of 100 μg/mL followed by ten 5-fold serial dilutions for 30 min on ice in the dark. After washing twice, cells were incubated with APC-conjugated goat anti-human IgG (H+L)-APC (Dianova, cat. 109-136-088) for 30 min on ice in the dark. […] After washing, binding was measured by flow cytometry and mean fluorescence intensities (MFI) of cell samples were calculated and corrected for background staining using control cells stained with secondary antibodies only.
as §1

The target in experiment [6] is T5, recombinant human neonatal Fc receptor (FcRn), biotinylated (human, UniProt P55899 24-297, site-directed biotinylation at AviTag).
T5 construct: also called human FcRn
T5 sequence (P55899 24-297 limits assumed, form in doubt): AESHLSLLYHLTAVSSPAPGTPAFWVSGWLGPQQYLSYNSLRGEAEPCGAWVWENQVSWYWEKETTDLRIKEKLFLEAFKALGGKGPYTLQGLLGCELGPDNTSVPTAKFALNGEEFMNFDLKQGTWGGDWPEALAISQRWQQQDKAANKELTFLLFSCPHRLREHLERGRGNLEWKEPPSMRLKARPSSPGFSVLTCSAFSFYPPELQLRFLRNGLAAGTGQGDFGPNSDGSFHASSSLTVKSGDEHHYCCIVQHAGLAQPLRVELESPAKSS
Briefly: SPR (Biacore), 37 °C, pH 6.0, biotin-captured human FcRn as ligand, steady-state affinity fit. Here is the method: Affinity parameters were evaluated for interaction with human FcRn, cynomolgus FcRn or murine FcRn using a Steady State Binding model (D-F).

Experiment [7] has as its target T1, human CD16A (158F) on transfected CHO …. Briefly: flow cytometry on huCD16A-transfected CHO cells (cAg_34), one-site fit of MFI, experiment 2. The procedure: as §2, §1

T1 sequence (P08637 17-254 limits assumed): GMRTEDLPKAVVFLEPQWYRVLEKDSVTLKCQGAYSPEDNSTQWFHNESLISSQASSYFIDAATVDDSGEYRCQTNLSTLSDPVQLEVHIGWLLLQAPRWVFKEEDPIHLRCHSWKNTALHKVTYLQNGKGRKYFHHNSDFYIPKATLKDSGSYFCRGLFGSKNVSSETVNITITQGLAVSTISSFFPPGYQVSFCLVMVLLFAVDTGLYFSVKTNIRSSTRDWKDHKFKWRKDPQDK

B1: scFv-IgAb_268 (CD123-1xCD16a1) (bispecific antibody)
heavy: QVQLQQSGAEVKKPGASVKVSCKASGYTFTDYYMKWVKQSHGKSLEWMGDIIPSNGATFYNQKFKGKATLTVDRSTSTAYMELSSLRSEDTAVYYCARSHLLRASWFAYWGQGTLVTVSSASTKGPSVFPLAPSSKSTSGGTAALGCLVKDYFPEPVTVSWNSGALTSGVHTFPAVLQSSGLYSLSSVVTVPSSSLGTQTYICNVNHKPSNTKVDKKVEPKSCDKTHTCPPCPAPEFEGGPSVFLFPPKPKDTLMISRTPEVTCVVVAVSHEDPEVKFNWYVDGVEVHNAKTKPREEQYNSTYRVVSVLTVLHQDWLNGKEYKCKVSNKALPAPIEKTISKAKGQPREPQVYTLPPSREEMTKNQVSLTCLVKGFYPSDIAVEWESNGQPENNYKTTPPVLDSDGSFFLYSKLTVDKSRWQQGNVFSCSVMHEALHNHYTQKSLSLSPGGGGGSGGGGSGGGGSGGGGSGGGGSGGGGSSYELTQPLSVSVALGQTARITCGGNNIGSKSVHWYQQKPGQAPVLVIYQDKKRPSGIPERFSGSNSGNTATLTISRAQAGDEADYYCQVWDDYIVLFGCGTKLTVLGGSGGSGGSGGSGGSGGSGGSQVQLVQSGAEVKKPGASVKVSCKASGYTFTNYYMQWVRQAPGQCLEWMGIINPSGGVTSYAQKFQGRVTMTRDTSTSTVYMELSSLRSEDTAVYYCARGSAYYYDFADYWGQGTLVTVSS
light: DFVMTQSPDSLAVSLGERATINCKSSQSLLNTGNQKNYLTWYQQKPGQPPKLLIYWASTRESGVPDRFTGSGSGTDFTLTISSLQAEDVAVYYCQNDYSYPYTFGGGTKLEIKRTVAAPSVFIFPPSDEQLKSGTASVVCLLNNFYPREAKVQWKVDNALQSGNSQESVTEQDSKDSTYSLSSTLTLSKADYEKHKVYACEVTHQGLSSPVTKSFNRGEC
notes: also called AFM28; CD123xCD16A scFv-IgAb_268
Turning to B1, the 50% effective concentration (EC50 (read off the curve)) (commonly the concentration at which the effect is half-maximal) in experiment [1] was ~8 nM. In addition, the binding result was “no binding (tested: 500 nM to 4000 nM)” in experiment [2], “no binding” in experiment [3] and “no binding” in experiment [4]. In addition, the figures for the Kd in experiment [5], in experiment [6] and in experiment [7] were 23.5 nM, 364 nM and 7.8 nM, respectively.
